Source: article PMC2120828 (The Journal of Cell Biology, 1996)

Legend:
Assay in all cases: two-hybrid
[1] = biological target: DBDlexA-Cdc42(Q61L/C188S) (S. cerevisiae, UniProt P19073 1-191, Q61L | C188S)
[2] = biological target: DBDlexA-Cdc42(D118A/C188S) (S. cerevisiae, UniProt P19073 1-191, D118A | C188S)
[3] = biological target: DBDlexA-Cdc42(C188S) (S. cerevisiae, UniProt P19073 1-191, C188S)
DBDlexA-Cdc42(C188S), sequence (P19073 whole entry C188S): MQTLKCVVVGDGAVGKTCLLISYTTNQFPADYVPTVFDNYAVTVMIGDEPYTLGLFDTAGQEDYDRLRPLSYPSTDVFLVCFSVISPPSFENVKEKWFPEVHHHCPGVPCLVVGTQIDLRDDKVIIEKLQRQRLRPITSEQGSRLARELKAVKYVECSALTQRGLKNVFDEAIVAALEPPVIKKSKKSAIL

DBDlexA-Cdc42(D118A/C188S), sequence (P19073 whole entry D118A/C188S): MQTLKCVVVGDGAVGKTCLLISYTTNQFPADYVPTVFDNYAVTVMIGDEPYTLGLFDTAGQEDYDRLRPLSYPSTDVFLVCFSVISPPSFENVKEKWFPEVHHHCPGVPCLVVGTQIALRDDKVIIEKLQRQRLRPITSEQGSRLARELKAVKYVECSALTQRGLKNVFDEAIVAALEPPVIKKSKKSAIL
DBDlexA-Cdc42(Q61L/C188S), sequence (P19073 whole entry Q61L/C188S): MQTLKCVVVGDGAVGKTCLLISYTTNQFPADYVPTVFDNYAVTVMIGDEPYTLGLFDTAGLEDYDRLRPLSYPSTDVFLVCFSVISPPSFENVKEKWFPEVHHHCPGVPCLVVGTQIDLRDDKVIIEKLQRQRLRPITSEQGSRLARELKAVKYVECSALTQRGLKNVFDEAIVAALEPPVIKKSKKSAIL

| beta-galactosidase activity [1] | beta-galactosidase activity [2] | beta-galactosidase activity [3] | Binder |
| --- | --- | --- | --- |
| 230 | < 0.02 | 380 | ADGal4-BOI1(731-980) (domain or fragment, S. cerevisiae) EFKRSPSELTQKSTKSILPRSNAKKQQTSAFTEGIRSITAKESMQTADCSGWMSKKGTGAMGTWKQRFFTLHGTRLSYFTNTNDEKERGLIDITAHRVLPASDDDRLISLYAASLGKGKYCFKLVPPQPGSKKGLTFTEPRVHYFAVENKSEMKAWLSAIIKATIDIDTSVPVISSYATPTIPLSKAQTLLEEARLQTQLRDAEEEEGRDQFGWDDTQNKRNSNYPIEQDQFETSDYLESSAFEYPGGRL |
| 400 | < 0.02 |  | ADGal4-BOI1(375-980) (domain or fragment, S. cerevisiae) ILDMTEVPNLFADKDIFESPGRAPKPPSYPSPVQPPQSPSFNNRYTNNNARFPPQTTYPPKNKNPTVYSNGLIPNSSTSSDNSTGKFKFPAMNGHDSNSRKTTLTSATIPSINTVNTDESLPAISNISSNATSHHPNRNSVVYNNHKRTESGSSFVDLFNRISMLSPVKSSFDEEETKQPSKASRAVFDSARRKSSYGHSRDASLSEMKKHRRNSSILSFFSSKSQSNPTSPTKQTFTIDPAKMTSHSRSQSNSYSHARSQSYSHSRKHSLVTSPLKTSLSPINSKSNIALAHSETPTSSNNKEAVSQPSEGKHKHKHKHKSKHKHKNSSSKDGSSEEKSKKKLFSSTKESFVGSKEFKRSPSELTQKSTKSILPRSNAKKQQTSAFTEGIRSITAKESMQTADCSGWMSKKGTGAMGTWKQRFFTLHGTRLSYFTNTNDEKERGLIDITAHRVLPASDDDRLISLYAASLGKGKYCFKLVPPQPGSKKGLTFTEPRVHYFAVENKSEMKAWLSAIIKATIDIDTSVPVISSYATPTIPLSKAQTLLEEARLQTQLRDAEEEEGRDQFGWDDTQNKRNSNYPIEQDQFETSDYLESSAFEYPGGRL |
|  | < 0.02 |  | ADGal4-BOI1(375-557) (domain or fragment, S. cerevisiae) ILDMTEVPNLFADKDIFESPGRAPKPPSYPSPVQPPQSPSFNNRYTNNNARFPPQTTYPPKNKNPTVYSNGLIPNSSTSSDNSTGKFKFPAMNGHDSNSRKTTLTSATIPSINTVNTDESLPAISNISSNATSHHPNRNSVVYNNHKRTESGSSFVDLFNRISMLSPVKSSFDEEETKQPSKA |
